How the values were obtained:
MS2 coat protein = assay: apparent KD of MS2 coat protein; higher = weaker reporter binding; details: Eterna round: R107
Procedure: (§1)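 RNA-MaP round R107: designed RNA switches with theophylline, tryptophan, arginine or FMN aptamers are transcribed on-chip within common flanks. They are titrated with SNAP-549-labelled MS2 coat protein in RNA-MaP buffer (100 mM Tris pH 7.5, 80 mM KCl, 4 mM MgCl2), without ligand or with the indicated ligand. Median apparent KD per design.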

[1] = tested on: K4 kissing-loop RNA reporter; assay: apparent KD of K4 kissing-loop reporter; higher = weaker reporter binding; details: Eterna round: R107;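 further: bound reporter read as fluorescence of individual clusters on recovered sequencing chips by microscopy, with normalized cluster intensities fitted with a binding model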
Procedure: as §1, with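 “a labelled K4 kissing-loop RNA reporter” for “SNAP-549-labelled MS2 coat protein”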

[2] = input ligand: theophylline 20 uM
[3] = input ligand: theophylline 2 mM
[4] = input ligand: tryptophan 2.4 mM

Sequence	apparent KD of MS2 coat protein (MS2 coat protein; input ligand: arginine 13.2 mM)	apparent KD of MS2 coat protein (MS2 coat protein; input ligand: none)	apparent KD of MS2 coat protein (MS2 coat protein; [2])	apparent KD of MS2 coat protein (MS2 coat protein; [3])	apparent KD of MS2 coat protein (MS2 coat protein; [4])	apparent KD of K4 kissing-loop reporter ([1]; input ligand: FMN 200 uM)	apparent KD of K4 kissing-loop reporter ([1]; input ligand: arginine 13.2 mM)	apparent KD of K4 kissing-loop reporter ([1]; input ligand: none)	apparent KD of K4 kissing-loop reporter [1, 4]	apparent KD of K4 kissing-loop reporter [1, 2]
AAAAUAAAGGCGGCCGCCACUAGAGUUAGGCAUAUGUACUGGGUAACAUGAGGAUCACCCAUGUAUAGGACCGGGCCAUAAUAAA [Same State - Tryptophan B (Freestyle 1)]	51.7 nM	39.9 nM	46.2 nM	33.4 nM	36.5 nM					
AAAAUAUAGACGGCCGCCACUAUAAACAUGAGGAACAUGAGGAUCACCCAUGUAUGAGGAUCACCUAGGACCGGGUCAUAUAAAA [AstrosExyTryB#1]	28.6 nM	43 nM	55.4 nM	41.7 nM	40.2 nM					
AAACAUUGCUGCGAUACCAGACAUGAGGAUCACCCAUGUACCAAGGUAAGAAAAUAACAUGUCCCUUGGCAGCGCAGCAAUGAAA [MAT - Exclusion Theophlline B - Mod of Eli - D2]	19.2 nM		33.4 nM		15.8 nM					
AAACGUUGCUCAGAUACCAGACAUGAGGAUCACCCAUGUACCGAGGUACCCGAAAGGAAUGUCCCUUGGCAGCUGAGCAACGAAA [MAT - Exclusion Theophlline B - Mod of Eli - D23]	14.6 nM		19 nM		10.2 nM					
AAAGUUGAUGAGUUGCGUUUGUGUUCCGAAGGAGCGAGAAUUAUCUCAGGUAGGUCGCGGAACAUGAGGAUCACCCAUGUAUAAA [XArg-A 19 NuV1&2 original #dotplot2>1]	35.3 nM	36.3 nM	46.2 nM	41.6 nM	34.3 nM					
AAAUAAUCUAGUCCACAAUGUGACUCAGAUACCAGUGCAAAGCUACACCCUUGGCAGCUGGUUACAUGAGGAUCACCCAUGUCGU [theeternabot_exclusion_MS2_Theo_A_50]	34.3 nM		51.9 nM		46.9 nM					
AAAUAUAACUCGGCCGCCACUGACAUGAGGAUCACCCAUGUUAUAUUUUAUACAUGAGGAUCACCCAGGACCGGGAGAAUAUAAA [Jonah 1]	61.7 nM	940 nM	484 nM	696 nM	1590 nM					
AACAUGAGGAUCACCCAUGUAAUAUGGGAUACCAGAGACGAAAGUCUCCCUUGGCAGCCCAAGCUGCUCCAUACGAAAGUAUGGU [Theophylline A 16]	50.5 nM		43.7 nM		64.7 nM					
AACAUGAGGAUCACCCAUGUCAUGUUGGAUACCAGCCAAUAAUAAGGCCCUUGGCAGCUAUAGAUCGAUGAUCCAUGAGGAUCAC [Exclusion Theophylline A]	27.6 nM		49.4 nM		33.1 nM					
AACAUGAGGAUUGAUACCAGUCCAUGAGGAUCACAUGAGGAUCACCCAUGUGGAACAUGAGGCCCUUGGCAGCAGUACAACAUGA [Same State Theophylline B]	13.8 nM		17.2 nM		17.3 nM					
UUCUACGAGUGAUGUUCGUAGUGUAAUAGCUAGGAUAUCGUUUUUUCGAGAAGGAGCUUCGAAGUGAUACGAAAGUAUCGCUUCG [FMN A 12]						227 nM	369 nM	349 nM	264 nM	
UUGAGCCUGACGAAAGUCAGGCUCUGCGAGCGAGGACCGGUACGGCCGCCACUCGGUGCAGUGAUGUUGCAUGGCCGCAAGGCCG [#2 Exclusion - Tryptophan A Attempt #14 (HarryS)]						309 nM	300 nM	289 nM	456 nM	312 nM
UUGCCCGAUGGAGAUACCAGCAGUUGUGCAGUGAUGUUGCACAAGUACUCGCUCCAUUGCUGCCCUUGGCAGCUCCCGGCGAAAA [Reoraren]						95.9 nM	79.7 nM	84.7 nM	81.3 nM	92.4 nM
UUGCUUCUACUAGGAUAUCAUCAGUCAUGUUCAAUGACACUCGAGUGAUGUUCGAUAGAAGCGAGAUGAGAAGGAGUACAAGCAG [FMB B SS t3]						374 nM	48.8 nM	159 nM	70.7 nM	118 nM
UUGGAGUGAUGUUCCAUAUCUUGAGCCGAAGGAGCGGCAUUAUUGCCAGGUAGGUCGCGGCAGAAGGUACCAGUGAUGUUGGAAA [Same State Arginine A GF 4]						136 nM	138 nM	151 nM	125 nM	126 nM
UUGGCUGGACGGGAUACCAGCCAAAUCGUGUGCUUAGGAUGUCUAAGAGCCAGUGAUGUUGGCCCUUGGCAGCCCUCCUAGCUUG [Ordigear]						154 nM	115 nM	138 nM	136 nM	124 nM

Sequence	apparent KD of MS2 coat protein (MS2 coat protein; input ligand: arginine 13.2 mM)	apparent KD of MS2 coat protein (MS2 coat protein; input ligand: none)	apparent KD of MS2 coat protein (MS2 coat protein; [2])	apparent KD of MS2 coat protein (MS2 coat protein; [3])	apparent KD of MS2 coat protein (MS2 coat protein; [4])	apparent KD of K4 kissing-loop reporter ([1]; input ligand: FMN 200 uM)	apparent KD of K4 kissing-loop reporter ([1]; input ligand: arginine 13.2 mM)	apparent KD of K4 kissing-loop reporter ([1]; input ligand: none)	apparent KD of K4 kissing-loop reporter [1, 4]	apparent KD of K4 kissing-loop reporter [1, 2]
UUGGCUGGACGGGAUACCAGCCAAAUCGUGUGCUUGGGAUGUCUAAGAGCCAGUGAUGUUGGCCCUUGGCAGCCCUCCCAGCUUG [Inontixe]						124 nM	88.6 nM	97.1 nM	98.4 nM	134 nM
UUGUUUGGUUGAGAGGUUGGGCGAGAUGAUACCAGUAUAGUAUAGUACCCUUGGCAGCAUAGGAGAGAUAUAGUGAUGUUGUAUG [SSTheophA.V]						424 nM	288 nM	493 nM	373 nM	372 nM
UUGUUUUACUGAAGGAGCGGCAAUUGAUACGUAGAUAUAGUGAUGUUAUAUAAGAUAGAGAGCCAGGUAGGUCGCAGAUGUGUUU [ExArgB.T]						196 nM	205 nM	180 nM	149 nM	204 nM
UUUAAACAUAGUGAUGUUAUGUAACAAUGACGAGGACCGGUACGGCCGCCACUCGAGAGAGAUAAUGAUAAAAUAAAUAAUUUUC [#09 K4 Tryptophan A Same State]						109 nM	111 nM	118 nM	92.4 nM	115 nM
UUUAUGAGGUCGGCCGCCACUGGAUUUAUGUUUGUUUCGUCUGGAUCAAAGUGAUGUUUUGAGUCCAGGACCGGGACAUUUGUUA [whbob_Ex_Tryp_B_w40]						85.3 nM	76.3 nM	80.5 nM	94 nM	76.8 nM
UUUAUUAAGACGGCCGCCACUGAUUCAUAGUGAUGUUAUGAUAUAAUCUUAGUGAUAUUUAUAAACAGGACCGGGUCAAUUAUUA [JR_SSTryptoB_Sub026]						221 nM	173 nM	192 nM	162 nM	166 nM
UUUGGAUUGCGCUAAGAGUGCAAGCGCCAACGAGGACCGGUACGGCCGCCACUCGCGGAGGAGUCCAGUGAUGUUGGACGGCCCG [Orbile]						326 nM	222 nM	601 nM	183 nM	178 nM
UUUUAAAUAUCUGAUACCAGAGAAAAUAUAUGUAGUGAUGUUAUAUACAAAAUAAAUAAGCUCCCUUGGCAGCAGUAUUAAUUUU [AstrosExyTheB#1]						655 nM	622 nM	808 nM	610 nM	688 nM
UUUUAAAUGUCUGAUACCAGAGAAAAUAUAUGUAGUGAUGUUACAUACAAAUUUAAUAAGCUCCCUUGGCAGCAGUAUGAAUUUU [AstrosExc-TheB#15]						44.6 nM	66.7 nM	55.9 nM	49.5 nM	67 nM
UUUUAAUGCAGUGAUGUUGCUAAUAAAACAGAGGAUAUGCAUGGAAGCAGAAGGCUGAAAUAUUAUACUUUAAUAAAUUAUAUUU [JR_SSFMNA_Sub010]						71.2 nM	116 nM	78.8 nM	66.6 nM	119 nM
UUUUAAUGCAGUGAUGUUGCUAAUAAAACAGAGGAUAUGCAUGGAAGCAGAAGGCUGAUAUAUUAUACUUUAAUAUAUUAUAUUU [JR_SSFMNA_Sub011]						77.8 nM	147 nM	121 nM	86.6 nM	188 nM
UUUUAUUAGUAGUGAUGUUACUAAACUGAAGGAGCGAGAUUUAACUCAGGUAGGUCGCAGAAAAUCAAUUAAUUUAUAAAUUAAA [JR_SSArginiA_Sub011]						97.7 nM	87.8 nM	99.8 nM	94.6 nM	87.2 nM
UUUUUAUGCAGUGAUGUUGCUAAUAUAACAGAGGAUAUGCAUUAAAGCAGAAGGCUGAAAUACUAUACUUUAAUAAAUUAAAUUU [JR_SSFMNA_Sub013]						94.2 nM	136 nM	107 nM	82.7 nM	144 nM
UUUUUGGAGAAUUAUAGUGAUGUUAUGAAGGAGGAUAUCUGGAGAUGGAGAAGGCCUAGUGGCUCAGCCCUGGAGGGUGGGUGGG [ExFMNA.aB]						822 nM	562 nM	705 nM	572 nM	556 nM
UUUUUGGUUUAGAGUGAUGUUCCUUGUAAUCGAGGACCGGUACGGCCGCCACUCGAUUAGAAAAGAAAAGAAAAGAGUGAUGUUU [BDazzled - #2 SS Tryptophan A]						347 nM	229 nM	299 nM	243 nM	248 nM

Source: the supplement of paper PMC9170038
